Source: PMC3502708 (Journal of molecular biology, 2012)
Where no end group is shown, it is not given here. Me3 = trimethyl (trimethylated lysine)

Legend:
[1] = target: T1, MORF PHD1/2 fingers (aa 211-329) (human, UniProt Q8WYB5-3 211-329); assay: NMR titration
T1 sequence (looked up): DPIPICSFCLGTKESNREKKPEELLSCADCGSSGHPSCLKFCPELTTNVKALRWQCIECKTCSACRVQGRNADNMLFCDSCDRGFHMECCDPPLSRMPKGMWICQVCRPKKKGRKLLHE

[2] = target: MOZ PHD1/2 fingers (aa 207-318) (human, UniProt Q92794 207-318); assay: other fluorescence titration
[3] = target: T1, MORF PHD1/2 fingers (aa 211-329); assay: other fluorescence titration

Chain of MOZ PHD1/2 fingers (aa 207-318) (Q92794 207-318): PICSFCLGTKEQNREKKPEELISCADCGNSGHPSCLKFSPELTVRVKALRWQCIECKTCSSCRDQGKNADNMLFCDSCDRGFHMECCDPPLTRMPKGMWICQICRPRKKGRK

Binder: ARTKQTARKSTG (peptide, UniProt P68431 2-13, looked up) [unmodified histone H3 peptide, amino acids 1-12]
- binding result [1]: binds

Binder: ARTK(Me3)QTARK(Ac)STG [histone H3 peptide trimethylated at Lys4 and acetylated at Lys9]
- fold stronger than H3K4me3 [1]: ~4 fold

Binder: ARTKQTARKSTG (acetyl-lysine at 9) [histone H3 peptide acetylated at Lys9 (length not stated for the experiment)]
- Kd [2]: 1.5 µM
- Kd [3]: 1.4 µM

Binder: ARTKQTARKSTG (peptide, UniProt P68431 2-13, looked up, acetyl-lysine at 9) [histone H3 peptide acetylated at Lys9, amino acids 1-12]
- binding result [1]: binds

Binder: ARTK(Me3)QTARKSTG [histone H3 peptide trimethylated at Lys4]
- Kd [1]: ~2000 µM
